Test results from US20230322953A1 (HARBOUR BIOMED SHANGHAI, published 2023).
Read-outs that look alike come from different tables or passages of the source.

How the values were obtained:
[1] = biological target: T1, human BCMA on NCI-H929 cells (ATCC, CRL-9068) (human, UniProt Q02223 1-184); test: cell-based or functional assay
T1 sequence (looked up): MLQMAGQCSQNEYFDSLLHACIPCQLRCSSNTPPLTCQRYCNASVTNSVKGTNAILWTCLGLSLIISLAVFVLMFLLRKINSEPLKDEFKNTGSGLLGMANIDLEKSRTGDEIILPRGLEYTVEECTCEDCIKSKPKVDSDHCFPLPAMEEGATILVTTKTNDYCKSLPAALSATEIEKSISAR

[2] = biological target: T2, biotinylated human BCMA-Fc, Avitag recombinant protein (ACRO Biosystems, #BC7-H82F0) (human, UniProt Q02223 1-54, biotinylated (Avitag)); test: BLI (Octet Red96e), biotinylated BCMA-Fc on SA sensor, 1:1 global fitting;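 note: Anti-BCMA antibodies analysed as binding partners of the captured BCMA antigen, with reference signals removed by double referencing before kinetic fitting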
T2 construct: extracellular domain; Bought protein; also called huBCMA.Fc; recombinant human BCMA-ECD-Fc
T2 sequence (looked up): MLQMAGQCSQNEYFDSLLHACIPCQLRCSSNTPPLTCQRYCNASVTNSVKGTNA

[3] = biological target: T3, cynomolgus monkey BCMA (ACRO Biosystems, #BCA-C82F4) (cynomolgus monkey, UniProt A0A2K5UD97 1-53); test: BLI (Octet Red96e), cyBCMA.Fc
T3 construct: Bought protein; also called cyBCMA.Fc

[4] = biological target: T1, human BCMA on NCI-H929 cells (ATCC, …); test: cell-based or functional assay; remark: listed apart in the source
[5] = biological target: T1, human BCMA on NCI-H929 cells (ATCC, …); test: cell-based or functional assay; remark: listed apart in the source
[6] = biological target: T1, human BCMA on NCI-H929 cells (ATCC, …); test: cell-based or functional assay; remark: listed apart in the source
[7] = biological target: T4, human CD3 (TCR/CD3 complex) on human T cells (human, UniProt P07766 23-207); test: flow cytometry (FACS) on human T cells, Experiment 3
T4 construct: whole, on cells

[8] = biological target: T5, cynomolgus monkey CD3 (TCR/CD3 complex) on cynomolgus monkey T cells (cynomolgus monkey); test: flow cytometry (FACS) on cynomolgus monkey T cells
T5 construct: whole, on cells
T5 sequence (Q95LI5 22-198, one chain of several): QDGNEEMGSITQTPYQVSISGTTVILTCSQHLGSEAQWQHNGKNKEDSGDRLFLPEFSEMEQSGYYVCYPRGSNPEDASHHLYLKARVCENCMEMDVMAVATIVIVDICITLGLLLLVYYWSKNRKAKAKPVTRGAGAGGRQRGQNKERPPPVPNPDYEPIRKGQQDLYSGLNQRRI

T3 sequence (A0A2K5UD97 entry or part of it): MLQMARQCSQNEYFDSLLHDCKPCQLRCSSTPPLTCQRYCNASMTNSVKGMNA
T4 sequence (P07766 23-207, one chain of several): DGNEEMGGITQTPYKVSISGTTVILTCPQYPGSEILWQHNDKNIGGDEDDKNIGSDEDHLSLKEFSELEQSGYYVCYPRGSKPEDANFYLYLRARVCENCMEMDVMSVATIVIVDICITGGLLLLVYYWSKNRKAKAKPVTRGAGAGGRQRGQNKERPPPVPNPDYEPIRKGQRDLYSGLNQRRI

Kd [2]: 0.0452 nM
koff [2]: 2.46e-05 s⁻¹
kon [2]: 545000 M⁻¹ s⁻¹
binding result [3]: no binding
IFN-γ release, EC50 [5]: 0.261 nM
IFN-γ release, Maximum [5]: 658 pg/mL
IL-2 release, EC50 [5]: 0.312 nM
IL-2 release, Maximum [5]: 25.8 pg/mL
IL-6 release, EC50 [5]: 0.341 nM
IL-6 release, Maximum [5]: 71.4 pg/mL
IL-10 release, EC50 [5]: 0.335 nM
IL-10 release, Maximum [5]: 190 pg/mL
TNF-α release, EC50 [5]: 0.224 nM
TNF-α release, Maximum [5]: 1020 pg/mL
IFN-γ release, EC50 [6]: 0.483 nM
IFN-γ release, Maximum [6]: 1020 pg/mL
IL-2 release, EC50 [6]: 2.27 nM
IL-2 release, Maximum [6]: 21.5 pg/mL
IL-6 release, EC50 [6]: 13.1 nM
IL-6 release, Maximum [6]: 245 pg/mL
IL-10 release, EC50 [6]: 0.861 nM
IL-10 release, Maximum [6]: 583 pg/mL
TNF-α release, EC50 [6]: 0.464 nM
TNF-α release, Maximum [6]: 608 pg/mL
Maximum MFI [7]: 6850 MFI
Maximum MFI [8]: 1110 MFI
B1: PR002199, BCMA × CD3 bispecific antibody derived from WO2019133761A1 (bispecific antibody, human IgG1, kappa, L234A L235A)
chain 1: not shown
chain 2: EVQLVESGGGLVQPGRSLRLSCAASGFTFDDYAMHWVRQAPGKGLEWVSGISWNSGSIGYADSVKGRFTISRDNAKNSLYLQMNSLRAEDTALYYCAKDSRGYGDYRLGGAYWGQGTLVTVSSASTKGPSVFPLAPSSKSTSGGTAALGCLVKDYFPEPVTVSWNSGALTSGVHTFPAVLQSSGLYSLSSVVTVPSSSLGTQTYICNVNHKPSNTKVDKKVEPKSCDKTHTCPPCPAPEAAGGPSVFLFPPKPKDTLMISRTPEVTCVVVDVSHEDPEVKFNWYVDGVEVHNAKTKPREEQYNSTYRVVSVLTVLHQDWLNGKEYKCKVSNKALGAPIEKTISKAKGQPREPQVYTLPPCREEMTKNQVSLWCLVKGFYPSDIAVEWESNGQPENNYKTTPPVLDSDGSFFLYSKLTVDKSRWQQGNVFSCSVMHEALHNHYTQKSLSLSPGK
chain 3: EVQLLESGGGLVQPGGSLRLSCAASGFTVSSYGMSWVRQAPGKGPEWVSGIRGSDGSTYYADSVKGRFTISRDNSKNTLYLQMNSLRAEDTAVYYCAKQGENDGPFDHRGQGTLVTVSSGGGGSEVQLLESGGGLVQPGGSLRLSCAASGFTVSSYGMSWVRQAPGKGPEWVSGIRGSDGSTYYADSVKGRFTISRDNSKNTLYLQMNSLRAEDTAVYYCAKQGENDGPFDHRGQGTLVTVSSASEPKSSDKTHTCPPCPAPEAAGGPSVFLFPPKPKDTLMISRTPEVTCVVVDVSHEDPEVKFNWYVDGVEVHNAKTKPREEQYNSTYRVVSVLTVLHQDWLNGKEYKCKVSNKALGAPIEKTISKAKGQPREPQVCTLPPSREEMTKNQVSLSCAVKGFYPSDIAVEWESNGQPENNYKTTPPVLDSDGSFFLVSKLTVDKSRWQQGNVFSCSVMHEALHNHYTQKSLSLSPGK
notes: Three polypeptide chains; also called Positive control 2
Killing EC50 (nM), PBMC + NCI-H929, + 10 ng/mL sBAFF [1]: 0.063 nM
Killing EC50 (nM), PBMC + NCI-H929, + 10 ng/ml sAPRIL [1]: 0.096 nM
Killing EC50 (nM), PBMC + NCI-H929, + 100 ng/mL sBAFF [1]: 0.076 nM
Killing EC50 (nM), PBMC + NCI-H929, + 100 ng/ml sAPRIL [1]: 0.253 nM
Killing EC50 (nM), PBMC + NCI-H929, no soluble ligand [1]: 0.103 nM
Killing EC50 (nM), PBMC + NCI-H929, + 62.5 ng/ml sBCMA [4]: 0.8 nM
Killing EC50 (nM), PBMC + NCI-H929, + 125 ng/ml sBCMA [4]: 1 nM
Killing EC50 (nM), PBMC + NCI-H929, + 250 ng/ml sBCMA [4]: 3.5 nM
Killing EC50 (nM), PBMC + NCI-H929, + 500 ng/ml sBCMA [4]: 7.7 nM
Killing EC50 (nM), PBMC + NCI-H929, no sBCMA [4]: 0.2 nM
NCI-H929 killing, EC50 [5]: 0.115 nM
NCI-H929 killing, Maximum killing rate % [5]: 62%
NCI-H929 killing, EC50 [6]: 0.16 nM
NCI-H929 killing, Maximum killing rate % [6]: 61.2%
